Measurements reported in US20240059799A1 (Pfizer, published 2024).

Target: T1, recombinant human TL1A (human, UniProt O95150 71-251)
T1 construct: homotrimer; biotinylated for SPR capture; the ELISA paragraphs say only 'recombinant TL1A'; also called TNFSF15
T1 chain: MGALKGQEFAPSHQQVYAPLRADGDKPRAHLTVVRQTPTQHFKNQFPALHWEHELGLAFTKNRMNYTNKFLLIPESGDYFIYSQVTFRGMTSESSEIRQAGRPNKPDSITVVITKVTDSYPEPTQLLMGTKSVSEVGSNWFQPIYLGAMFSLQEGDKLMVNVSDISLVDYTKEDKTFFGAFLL
Assay: competition ELISA vs bio-TL1A-0002
Procedure: For this competition ELISA assay procedure, 96-well high binding plates (Corning, product number 3590) were coated with 1 μg/mL recombinant TL1A in 100 μL/well in Phospate Buffered Saline (PBS) overnight at 4° C. Plates were then blocked in PBS+0.02% casein solution and washed with PBS+0.05% Tween-20 following standard ELISA protocol. […] Plates were washed with PBS+0.05% Tween-20 following standard ELISA protocol, and Streptavidin-HRP (Southern Biotech, product number 7100-05) diluted to 1:10,000 in assay buffer was added to plates and incubated for 25-30 minutes at room temperature. Next, the plates were washed with PBS+0.05% Tween-20 following standard ELISA protocol, and then TMB substrate (BioFX Laboratories, catalog number TMBW-0100-01) was added to plates. Reactions were stopped after approximately 5 minutes by adding 0.18 M ortho-phosphoric acid to each well and absorbance was read at 450 nm.

Binder	Bioactivity relative to TL1A-0002 [fold]	IC50 [nM]
TL1A-0012 (antibody, IgG1, V domains shown, IgG1/kappa variant of TL1A-0002) VH: QVQLVQSGAEVKKPGASVKVSCKASGYDFTYYGISWVRQAPGQGLEWMGWISTYNGNTHYADSLQGRVTMTTDTSTRTAYMELRSLRSDDTAVYYCARENYYGSGAYRGGMDVWGQGTTVTVSS VL: EIVLTQSPATLSLSPGERATLSCRASQSVSSYLAWYQQKPGQAPRLLIYDASNRATGIPARFSGSGSGTDFTLTISSLEPEDFAVYYCQQRSNWPWTFGQGTKVEIKR	1.1	5
TL1A-0013 (antibody, IgG1, V domains shown, IgG1/kappa variant of TL1A-0002) VH: QVQLVQSGAEVKKPGASVKVSCKASGYDFTYYGISWVRQAPGQGLEWMGWISTYNGNTHYAPSLQGRVTMTTDTSTRTAYMELRSLRSDDTAVYYCARENYYGSGAYRGGMDVWGQGTTVTVSS VL: EIVLTQSPATLSLSPGERATLSCRASQSVSSYLAWYQQKPGQAPRLLIYDASNRATGIPARFSGSGSGTDFTLTISSLEPEDFAVYYCQQRSNWPWTFGQGTKVEIKR	1.2	5.5
TL1A-0014 (antibody, IgG1, V domains shown, IgG1/kappa variant of TL1A-0002) VH: QVQLVQSGAEVKKPGASVKVSCKASGYDFTYYGISWVRQAPGQGLEWMGWISTYNGNTHYAQKLQGRVTMTTDTSTRTAYMELRSLRSDDTAVYYCARENYYGSGAYRGGMDVWGQGTTVTVSS VL: EIVLTQSPATLSLSPGERATLSCRASQSVSSYLAWYQQKPGQAPRLLIYDASNRATGIPARFSGSGSGTDFTLTISSLEPEDFAVYYCQQRSNWPWTFGQGTKVEIKR	1.1	5.1
TL1A-0019 (antibody, IgG1, V domains shown, IgG1/kappa variant of TL1A-0002) VH: QVQLVQSGAEVKKPGASVKVSCKASGYDFTYYGISWVRQAPGQGLEWMGWISTYNGNTHHARMLQGRVTMTTDTSTRTAYMELRSLRSDDTAVYYCARENYYGSGAYRGGMDVWGQGTTVTVSS VL: EIVLTQSPATLSLSPGERATLSCRASQSVSSYLAWYQQKPGQAPRLLIYDASNRATGIPARFSGSGSGTDFTLTISSLEPEDFAVYYCQQRSNWPWTFGQGTKVEIKR	1.1	5
TL1A-0021 (antibody, IgG1, V domains shown, IgG1/kappa variant of TL1A-0002) VH: QVQLVQSGAEVKKPGASVKVSCKASGYDFTYYGISWVRQAPGQGLEWMGWISTYNGNDHYARMLQGRVTMTTDTSTRTAYMELRSLRSDDTAVYYCARENYYGSGAYRGGMDVWGQGTTVTVSS VL: EIVLTQSPATLSLSPGERATLSCRASQSVSSYLAWYQQKPGQAPRLLIYDASNRATGIPARFSGSGSGTDFTLTISSLEPEDFAVYYCQQRSNWPWTFGQGTKVEIKR	1.3	6
TL1A-0022 (antibody, IgG1, V domains shown, IgG1/kappa variant of TL1A-0002) VH: QVQLVQSGAEVKKPGASVKVSCKASGYDFTYYGISWVRQAPGQGLEWMGWISTYNGNEHYARMLQGRVTMTTDTSTRTAYMELRSLRSDDTAVYYCARENYYGSGAYRGGMDVWGQGTTVTVSS VL: EIVLTQSPATLSLSPGERATLSCRASQSVSSYLAWYQQKPGQAPRLLIYDASNRATGIPARFSGSGSGTDFTLTISSLEPEDFAVYYCQQRSNWPWTFGQGTKVEIKR	1.5	6.9
TL1A-0023 (antibody, IgG1, V domains shown, IgG1/kappa variant of TL1A-0002) VH: QVQLVQSGAEVKKPGASVKVSCKASGYDFTYYGISWVRQAPGQGLEWMGWISTYNGNDHYAPSLQGRVTMTTDTSTRTAYMELRSLRSDDTAVYYCARENYYGSGAYRGGMDVWGQGTTVTVSS VL: EIVLTQSPATLSLSPGERATLSCRASQSVSSYLAWYQQKPGQAPRLLIYDASNRATGIPARFSGSGSGTDFTLTISSLEPEDFAVYYCQQRSNWPWTFGQGTKVEIKR	1.3	5.6
TL1A-0024 (antibody, IgG1, V domains shown, IgG1/kappa variant of TL1A-0002) VH: QVQLVQSGAEVKKPGASVKVSCKASGYDFTYYGISWVRQAPGQGLEWMGWISTYNGNEHYAPSLQGRVTMTTDTSTRTAYMELRSLRSDDTAVYYCARENYYGSGAYRGGMDVWGQGTTVTVSS VL: EIVLTQSPATLSLSPGERATLSCRASQSVSSYLAWYQQKPGQAPRLLIYDASNRATGIPARFSGSGSGTDFTLTISSLEPEDFAVYYCQQRSNWPWTFGQGTKVEIKR	1.2	5.4
